This data set concerns Escherichia coli TOP10. As to the kind of experiment: shrunken log2 fold change of peptide-encoding DNA abundance (4.5 h post-induction vs induction); higher = less antimicrobial activity (less host growth inhibition). The conditions noted are these: time post-induction: 4.5 h; library: site-saturation at positions 5, 18, 19, 20.
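Also: peptides expressed intracellularly from a pBAD plasmid library in pooled LB shake-flask culture, induced with 0.3% L-arabinose, DNA abundance read by NGS, three biological replicates, DESeq2 with apeglm shrinkage.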

With RRIRKRPPRLPRPRPRPIWKPRP, the “shrunken log2 fold change” value is -0.00277. The figure for RRIRWRPPRLPRPRPRPFPLPRP is -0.297; for RRIRVRPPRLPRPRPRPMNCPRP it is 0.0359. With RRIRLRPPRLPRPRPRPKLWPRP, the “shrunken log2 fold change” value turned out to be 0.296. The value for RRIRWRPPRLPRPRPRPFWTPRP was 0.0519.

With RRIRVRPPRLPRPRPRPFEQPRP, the “shrunken log2 fold change” value stood at 0.162. Regarding RRIRVRPPRLPRPRPRPSACPRP, the “shrunken log2 fold change” value is -0.768. Turning to RRIRVRPPRLPRPRPRPCPHPRP, the “shrunken log2 fold change” value is -0.0391. With RRIRKRPPRLPRPRPRPNTWPRP, the “shrunken log2 fold change” value was found to be 0.0309. On to RRIRMRPPRLPRPRPRPSPSPRP, for which the “shrunken log2 fold change” value was found to be 0.588. As for RRIRHRPPRLPRPRPRPVCRPRP, the “shrunken log2 fold change” value was -0.3. The figure for RRIRFRPPRLPRPRPRPSTRPRP is -0.013; for RRIRVRPPRLPRPRPRPAEAPRP it is 0.729. Take RRIRLRPPRLPRPRPRPACEPRP: the “shrunken log2 fold change” value came to 0.317. The figure for RRIRDRPPRLPRPRPRPSVHPRP is -0.258.

In the case of RRIRLRPPRLPRPRPRPSSCPRP, the “shrunken log2 fold change” value was -0.277. The figure for RRIRPRPPRLPRPRPRPAFGPRP is 0.45. The value for RRIRQRPPRLPRPRPRPPHYPRP was 0.37. As for RRIRKRPPRLPRPRPRPLSRPRP, the “shrunken log2 fold change” value turned out to be 0.254. For RRIRKRPPRLPRPRPRPWEAPRP, the “shrunken log2 fold change” value is 0.0326. As for RRIRHRPPRLPRPRPRPRCEPRP, the “shrunken log2 fold change” value was found to be 0.149. As to RRIRERPPRLPRPRPRPCYMPRP, the “shrunken log2 fold change” value is -0.0163. The figure for RRIRHRPPRLPRPRPRPERWPRP is 0.357; for RRIRYRPPRLPRPRPRPFCEPRP it is -0.456; for RRIRWRPPRLPRPRPRPQSCPRP it is 0.0975. The figure for RRIRWRPPRLPRPRPRPVMDPRP is -0.385. Turning to RRIRYRPPRLPRPRPRPITYPRP, the “shrunken log2 fold change” value is -0.0505. For RRIRARPPRLPRPRPRPCDVPRP, the “shrunken log2 fold change” value stood at 0.212. Consider RRIRYRPPRLPRPRPRPQGPPRP, for which the “shrunken log2 fold change” value is -0.0382. For RRIRGRPPRLPRPRPRPYYSPRP, the “shrunken log2 fold change” value is -0.207. With RRIRTRPPRLPRPRPRPTWCPRP, the “shrunken log2 fold change” value was -0.178. As to RRIRPRPPRLPRPRPRPHCVPRP, the “shrunken log2 fold change” value was -0.0495. For the sequence RRIRTRPPRLPRPRPRPYCWPRP, the “shrunken log2 fold change” value was -0.109.

As to RRIRMRPPRLPRPRPRPEEKPRP, the “shrunken log2 fold change” value was 2.64. The value for RRIRGRPPRLPRPRPRPMKLPRP was 0.265; that for RRIRMRPPRLPRPRPRPDKYPRP was -0.212. On to RRIRCRPPRLPRPRPRPCGNPRP, for which the “shrunken log2 fold change” value was -0.278. In the case of RRIRDRPPRLPRPRPRPSLLPRP, the “shrunken log2 fold change” value came to 0.05. For the sequence RRIRYRPPRLPRPRPRPAWLPRP, the “shrunken log2 fold change” value was -0.0755. The figure for RRIRRRPPRLPRPRPRPGSYPRP is -0.0811. For the sequence RRIRSRPPRLPRPRPRPYQMPRP, the “shrunken log2 fold change” value is -0.557.

Turning to RRIRQRPPRLPRPRPRPKMFPRP, the “shrunken log2 fold change” value turned out to be 0.106.

Regarding RRIRERPPRLPRPRPRPTDWPRP, the “shrunken log2 fold change” value is -0.145. The value for RRIRSRPPRLPRPRPRPMFCPRP was -0.285.

As for RRIRRRPPRLPRPRPRPRWYPRP, the “shrunken log2 fold change” value worked out at 0.092. In the case of RRIRARPPRLPRPRPRPPTVPRP, the “shrunken log2 fold change” value was found to be 0.468. RRIRNRPPRLPRPRPRPSQHPRP: the “shrunken log2 fold change” value was -0.0437. The value for RRIRVRPPRLPRPRPRPWGIPRP was -0.265; that for RRIRDRPPRLPRPRPRPMRMPRP was 0.199. For RRIRDRPPRLPRPRPRPDYQPRP, the “shrunken log2 fold change” value was found to be 0.0708.

Regarding RRIRGRPPRLPRPRPRPRHDPRP, the “shrunken log2 fold change” value worked out at 0.417. Take RRIRIRPPRLPRPRPRPSMGPRP: the “shrunken log2 fold change” value was -0.222. For RRIRYRPPRLPRPRPRPKKFPRP, the “shrunken log2 fold change” value was -0.0477. In the case of RRIRERPPRLPRPRPRPRWPPRP, the “shrunken log2 fold change” value stood at 0.486. Turning to RRIRCRPPRLPRPRPRPHTPPRP, the “shrunken log2 fold change” value was found to be 0.0337.

For the sequence RRIRARPPRLPRPRPRPEFTPRP, the “shrunken log2 fold change” value came out at 0.475. The figure for RRIRMRPPRLPRPRPRPSIWPRP is -0.255; for RRIRCRPPRLPRPRPRPGMKPRP it is 0.062. On to RRIRHRPPRLPRPRPRPPAGPRP, for which the “shrunken log2 fold change” value was determined as 0.344. For the sequence RRIRTRPPRLPRPRPRPDYGPRP, the “shrunken log2 fold change” value turned out to be 0.00355.

On to RRIRGRPPRLPRPRPRPEDPPRP, for which the “shrunken log2 fold change” value worked out at 1.38. For RRIRSRPPRLPRPRPRPRILPRP, the “shrunken log2 fold change” value is -0.34. For the sequence RRIRLRPPRLPRPRPRPCCNPRP, the “shrunken log2 fold change” value is -0.155. Take RRIRYRPPRLPRPRPRPCAKPRP: the “shrunken log2 fold change” value was -0.374. As to RRIRRRPPRLPRPRPRPNQMPRP, the “shrunken log2 fold change” value was 0.388.

Consider RRIRDRPPRLPRPRPRPWFGPRP, for which the “shrunken log2 fold change” value is 0.228. The figure for RRIRTRPPRLPRPRPRPKECPRP is -0.503; for RRIRHRPPRLPRPRPRPPLEPRP it is 0.223; for RRIRPRPPRLPRPRPRPRDWPRP it is 0.531. Take RRIRGRPPRLPRPRPRPNHGPRP: the “shrunken log2 fold change” value was -0.178. For RRIRHRPPRLPRPRPRPFLKPRP, the “shrunken log2 fold change” value is -0.0136. For RRIRERPPRLPRPRPRPLFLPRP, the “shrunken log2 fold change” value was -0.306.

Turning to RRIRHRPPRLPRPRPRPTKNPRP, the “shrunken log2 fold change” value is -0.312. Consider RRIRNRPPRLPRPRPRPWPNPRP, for which the “shrunken log2 fold change” value is -0.063. For RRIRWRPPRLPRPRPRPMHVPRP, the “shrunken log2 fold change” value turned out to be 0.0255. As for RRIRNRPPRLPRPRPRPKMHPRP, the “shrunken log2 fold change” value is -0.0913. RRIRYRPPRLPRPRPRPEHFPRP: the “shrunken log2 fold change” value is -0.0545. Turning to RRIRERPPRLPRPRPRPNGCPRP, the “shrunken log2 fold change” value was determined as 0.00429. In the case of RRIRSRPPRLPRPRPRPQMSPRP, the “shrunken log2 fold change” value was -0.0374. As for RRIRCRPPRLPRPRPRPDIEPRP, the “shrunken log2 fold change” value was -0.0833.

As for RRIRSRPPRLPRPRPRPAYFPRP, the “shrunken log2 fold change” value is -0.297. In the case of RRIRIRPPRLPRPRPRPFGWPRP, the “shrunken log2 fold change” value came out at 0.468. The figure for RRIRFRPPRLPRPRPRPCWDPRP is -0.0535; for RRIRKRPPRLPRPRPRPLVMPRP it is 0.432.

With RRIRARPPRLPRPRPRPVNCPRP, the “shrunken log2 fold change” value is 1.04. The figure for RRIRLRPPRLPRPRPRPRAEPRP is 0.0944; for RRIRFRPPRLPRPRPRPIWCPRP it is -0.0176. As to RRIRHRPPRLPRPRPRPYPHPRP, the “shrunken log2 fold change” value was -0.495. As to RRIRSRPPRLPRPRPRPASRPRP, the “shrunken log2 fold change” value was determined as 0.189. The figure for RRIRGRPPRLPRPRPRPNAHPRP is 0.754; for RRIRERPPRLPRPRPRPWHLPRP it is -0.349.

Values taken from the supplement of paper PMC9112550, “Optimization of the antimicrobial peptide Bac7 by deep mutational scanning” (BMC Biology, 2022).
